Reference: PMC11218540, “Influence of PepF peptidase and sporulation on microcin J25 production in Bacillus subtilis” (Microbiology Spectrum, 2024)
Bridges are numbered along the chain shown (N, C = ends). Where no end group is shown, it is not given here.

Key:
[1] = at the highest concentration required to inhibit bacterial growth; cited from earlier work
From the text: Microcins are antimicrobial peptides synthesized by ribosomes and are produced by some Enterobacteriaceae species under the condition of nutrient depletion to kill or inhibit neighboring competitors ([1], [2]). Microcins are divided into two categories, namely, class I and class II, according to their molecular masses. Class I microcins have mass less than 5 kDa, while that of class II microcins is between 5 and 10 kDa ([1]). Microcin J25 (MccJ25) is a class I microcin with a unique lasso-like structure ([3][–][5]) that inhibits or kills target bacteria (primarily Gram-negative Enterobacteriac ...

[2] = test system: proteases (including peptidases); settings: cited from earlier work
From the text: Peptidases are important tools in the growth and metabolism of various organisms, including B. subtilis, and they are classified as exopeptidases and endopeptidases depending on the position of peptide bond cleavage ([22]). Different classes of peptidases are associated with important biological pathways. Based on similarity, PepA (yuiE) is predicted to be an aminopeptidase in B. subtilis, but its exact function has not been studied. In E. coli, PepA is a well-defined leucyl aminopeptidase with cysteinyl–glycinase activity, which involves glutathione turnover ([23]). Since glutathione is absen ...

[3] = target: T1, PepF (Bacillus subtilis, UniProt O31605); settings: mature lasso peptide incubated with purified PepF 8 hours at 37°C, compared with non-peptidase-treated
T1 sequence (O31605 whole entry, looked up): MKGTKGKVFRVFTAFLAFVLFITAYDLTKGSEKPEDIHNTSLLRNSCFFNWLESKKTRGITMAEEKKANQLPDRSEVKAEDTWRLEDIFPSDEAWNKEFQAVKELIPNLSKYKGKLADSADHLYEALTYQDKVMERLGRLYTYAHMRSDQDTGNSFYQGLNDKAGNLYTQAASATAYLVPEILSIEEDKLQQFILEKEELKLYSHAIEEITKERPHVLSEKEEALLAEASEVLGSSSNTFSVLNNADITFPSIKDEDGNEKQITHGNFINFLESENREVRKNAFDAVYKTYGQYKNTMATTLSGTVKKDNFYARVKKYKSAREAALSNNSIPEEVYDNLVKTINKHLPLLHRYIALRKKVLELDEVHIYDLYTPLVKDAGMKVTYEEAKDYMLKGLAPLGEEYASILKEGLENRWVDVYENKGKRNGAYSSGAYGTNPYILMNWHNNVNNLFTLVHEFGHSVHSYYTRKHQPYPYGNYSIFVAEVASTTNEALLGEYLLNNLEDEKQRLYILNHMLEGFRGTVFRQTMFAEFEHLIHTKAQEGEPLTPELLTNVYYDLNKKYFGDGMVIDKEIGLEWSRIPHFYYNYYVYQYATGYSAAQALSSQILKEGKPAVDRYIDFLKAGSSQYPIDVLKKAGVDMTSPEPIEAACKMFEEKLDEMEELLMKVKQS
Procedure: (§1) To examine the degradation effect of these three peptidases on the lasso peptide MccJ25, we performed the enzymatic (proteolytic treatment) reaction of MccJ25 with each peptidase enzyme for 8 hours at 37°C and measured the antibacterial activity and concentration of MccJ25 in the incubation products.
(§2) To investigate whether B. subtilis peptidases play an inhibitory role in the maturation of MccJ25, we synthesized a linear peptide chain consisting of 21 amino acid residues for mimicking the MccJ25 precursor peptide. The linear peptide was incubated with PepA, PepF, and PepT, and the effects of degradation of these three peptidases on the MccJ25 precursor peptide were determined.
(§3) The MccJ25 lasso peptide was obtained by a reverse-phase solid-phase extraction method, as described in previous studies ([15]). The MccJ25 lasso peptide was examined by antimicrobial activity analysis and UPLC-QqQ mass spectrometry analysis. The antibacterial activity analysis method and UPLC-QqQ mass spectrometry analysis process for MccJ25 have been described in detail in our previous articles ([21]). […] Quantitative analysis of the MccJ25 linear/lasso peptide was performed by ultra-performance liquid chromatography coupled with triple quadrupole mass spectrometry (UPLC-QqQ, Agilent Co., USA) in the positive ion mode. All original images of SDS-PAGE and spot-on-lawn were cropped and brightness adjusted using Fireworks software (Vesion CS 6, Adobe Systems Incorporated).
(§4) The strains BL21A (BL21-DE3, pET28a-PepA), BL21F (BL21-DE3, pET28a-PepF), and BL21T (BL21-DE3, pET28a-PepT) were used to produce the peptidases PepA, PepF, and PepT, respectively, and BL21O (BL21-DE3, pET28a+) was used as a control strain. […] L-leucine-p-nitroanilide was used as the standard chromogenic substrate for aminopeptidases to identify whether these three peptidases are aminopeptidases in B. subtilis. The mixture of peptidase (10%) and L-leucine-p- nitroanilide (1 mM) was reacted in Tris-HCl buffer solution at pH = 8.5 and 50°C for 10 minutes.

[4] = target: PepT (Bacillus subtilis, UniProt P55179); settings: 8 hours at 37°C, data not shown
Sequence of PepT (P55179 whole entry): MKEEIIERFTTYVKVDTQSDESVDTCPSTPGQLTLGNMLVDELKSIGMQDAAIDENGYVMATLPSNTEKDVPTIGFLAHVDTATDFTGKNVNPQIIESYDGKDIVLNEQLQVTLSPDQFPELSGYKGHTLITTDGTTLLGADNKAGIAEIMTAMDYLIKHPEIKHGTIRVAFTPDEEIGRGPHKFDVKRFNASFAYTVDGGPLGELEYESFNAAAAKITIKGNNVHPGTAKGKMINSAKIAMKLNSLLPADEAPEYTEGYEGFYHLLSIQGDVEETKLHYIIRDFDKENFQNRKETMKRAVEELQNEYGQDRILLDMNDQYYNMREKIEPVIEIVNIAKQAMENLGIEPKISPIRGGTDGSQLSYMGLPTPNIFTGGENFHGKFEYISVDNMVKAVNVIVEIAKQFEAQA
Procedure: as §1, §2, §3, §4

[5] = target: PepA (Bacillus subtilis, UniProt O32106); settings: 8 hours at 37°C, data not shown
Sequence of PepA (O32106 whole entry): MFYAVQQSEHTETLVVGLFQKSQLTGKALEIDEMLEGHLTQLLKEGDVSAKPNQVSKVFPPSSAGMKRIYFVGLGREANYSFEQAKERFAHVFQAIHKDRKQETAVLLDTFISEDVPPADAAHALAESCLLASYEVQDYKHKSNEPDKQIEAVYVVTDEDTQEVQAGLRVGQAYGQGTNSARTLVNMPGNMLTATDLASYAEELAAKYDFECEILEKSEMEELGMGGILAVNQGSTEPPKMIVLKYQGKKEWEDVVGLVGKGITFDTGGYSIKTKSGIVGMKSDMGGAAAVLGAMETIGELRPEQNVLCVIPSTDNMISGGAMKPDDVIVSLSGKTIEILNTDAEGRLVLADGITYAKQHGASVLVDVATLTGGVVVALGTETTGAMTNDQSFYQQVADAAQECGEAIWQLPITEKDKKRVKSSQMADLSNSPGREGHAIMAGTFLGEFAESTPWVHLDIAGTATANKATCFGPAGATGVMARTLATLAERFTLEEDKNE
Procedure: as §1, §2, §3, §4

[6] = spot-on-lawn assay, S. enteritidis CVCC3377

Substance: microcin J25 (GGAGHVPEYFVGIGTPISFYG; lactam N-8 (inferred); UniProt Q9X2V7 38-58, looked up) [MccJ25]
- toxicity and hemolysis [1]: neither toxic nor hemolytic
- resistance to proteases (including peptidases) [2]: high resistance
- concentration of MccJ25 after treatment with PepF ([3]; UPLC-QqQ-MS): unchanged
- antibacterial activity of MccJ25 after treatment with PepF ([3]; spot-on-lawn assay, indicator S. enteritidis CVCC3377): unchanged
- concentration of mature MccJ25 after treatment with PepT ([4]; UPLC-QqQ-MS): remained unchanged
- antibacterial activity of mature MccJ25 after treatment with PepT [4, 6]: remained unchanged
- concentration of mature MccJ25 after treatment with PepA ([5]; UPLC-QqQ-MS): remained unchanged
- antibacterial activity of mature MccJ25 after treatment with PepA [5, 6]: remained unchanged
